In patent publication US20130273567A1, “Screening Method for Candidate Agonist Compounds for Adiponectin Receptor I” (priority 2010, published 2013):

Tests used:
C2C12 myocytes = assay: NAD+/NADH measurements in C2C12 myocytes; format: cell-based, mouse; conditions: C2C12 myocytes treated with adiponectin
Experimental: NAD^+ and NADH nucleotides were directly measured by the method described in the following document (Nature, 458, 1056-1060 (2009)). Whole skeletal muscles or two 10 cm dishes of C2C12 myocytes were homogenized in 200 μl of an acid extraction buffer to measure the NAD^+ concentration, or 200 μl of alkali extraction to obtain the NADH concentration. Next, homogenates were neutralized and the concentration of nucleotides was measured fluorimetrically after an enzymatic cycling reaction using 5 μl of a sample. Values for both nucleotides were detected within the linear range. NAD^+/NADH ratios were calculated by comparing the ratios obtained from each animal or from parallel cell dishes in each experiment.

AdipoR1 [1] = target: T1, AdipoR1 (Mus musculus, UniProt Q91VH1); assay: Calcium imaging in skeletal muscle (soleus, fura-2); format: cell-based, mice; design: from tissue; host or cells: soleus muscle of control (Adipor1 lox/lox) and muscle-R1KO mice; conditions: adiponectin 30 μg/ml
T1 sequence (Q91VH1 1-375): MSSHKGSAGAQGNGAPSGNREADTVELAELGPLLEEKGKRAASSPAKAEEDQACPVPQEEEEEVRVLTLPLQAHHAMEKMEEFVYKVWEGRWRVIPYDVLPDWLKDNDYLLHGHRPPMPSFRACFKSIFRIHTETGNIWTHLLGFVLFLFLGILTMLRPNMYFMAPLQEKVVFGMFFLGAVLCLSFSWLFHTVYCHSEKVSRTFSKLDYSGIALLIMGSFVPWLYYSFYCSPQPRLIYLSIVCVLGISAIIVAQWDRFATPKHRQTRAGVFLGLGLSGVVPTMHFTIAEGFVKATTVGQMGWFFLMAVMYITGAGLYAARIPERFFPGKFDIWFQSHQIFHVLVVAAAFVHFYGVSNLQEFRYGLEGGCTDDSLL
Experimental: From 8-10 weeks-old mice, soleus muscles were dissected. Preparations were treated with 5 μM fura-2/AM in the presence of 0.1% Chremophore EL (Sigma) for 15 min. Fluorescence images were acquired using an inverted fluorescence microscopy (IX71, Olympus) equipped with a cooled charge-coupled device (CCD) camera (iXon, Andor) and a dry objective lens (10×, NA=0.3, Olympus) through a filter set consisting of a 327-353 nm and 369-391 nm excitation filter, a 409 nm dichroic mirror, and a 515-560 nm fluorescent filter. Ligands were supplied using the superfusing Ringer's solution (150 mM NaCl, 4 mM KCl, 2.0 mM CaCl2, 1.0 mM MgCl2, 30 mM D-glucose, 5 mM HEPES (pH 7.4)).

AdipoR1 [2] = target: T1, AdipoR1; assay: Patch clamp test, whole-cell current of C2C12 myocytes; format: cell-based; design: endogenous in cells; host or cells: mouse C2C12 myocytes (differentiated from myoblasts); conditions: holding potential -60 mV, adiponectin 30 μg/ml 30 sec
Experimental: Whole-cell currents were amplified with a patch-clamp amplifier (CEZ-2400; Nihon Kohden) and were digitized with a PowerLab digitizer (AD Instruments). Ringer's solution was used for the extracellular solution. The electrode solution contained 140 mM KCl, 10 mM HEPES, 5 mM EGTA-2K, and 10 mM D-glucose (pH 7.4). The data were low-pass filtered at 2 kHz and were sampled at 20 kHz. Ligands dissolved in Ringer's solution were applied at least twice with a self-made pressure-ejection system and via a two-barreled glass capillary.

AMPK = AMPK phosphorylation in vivo (skeletal muscle and liver, immunoblotting); design: species or system mice; conditions: adiponectin 30 μg per 10 g body weight, 10 min
Experimental: (§1) Mouse full-length adiponectin was generated as described in the following documents (Nature Med. 8, 1288-1295 (2002); Nature Med. 7, 941-946 (2001); Nature 423, 762-769 (2003)).
Real-time PCR was carried out according to the method described in the following documents (Nature Med. 13, 332-339 2007); Nature 423, 762-769 (2003); J. Biol. Chem. 281, 8748-8755 (2006)). Total RNA was prepared from cells or tissues by using Trizol (Invitrogen) according to the manufacturer's instructions. Quantification of mRNA was conducted using a real-time PCR method (Nature 423, 762-769 (2003)) with slight modifications. The procedures used for immunoblotting are described in the following documents (Nature Med. 7, 941-946 (2001); J. Biol. Chem. 281, 26602-26614 (2006); J. Biol. Chem. 281, 8748-8755 (2006)). The livers or muscles were freeze-clamped in liquid nitrogen in situ (Nature Med. 7, 941-946 (2001); J. Biol. Chem. 281, 26602-26614 (2006); J. Biol. Chem. 281, 8748-8755 (2006)).

PGC-1α = PGC-1α acetylation (acetyl-lysine on immunoprecipitates) in C2C12 myocytes; format: cell-based, mouse; conditions: treatment for 2 hr
Experimental: The mouse C2C12 myoblasts were grown in 90% Dulbecco's modified high glucose Eagle's medium containing 10% (v/v) fetal bovine serum. When the cells reached 80% confluent, the myoblasts were induced to differentiate into myocytes by replacing the medium with a low serum differentiation medium (98% Dulbecco's modified high glucose Eagle's medium, 2.5% (v/v) horse serum). The medium was changed daily. The C2C12 cells were transfected by using Pofectamine 2000 (Invitrogen) and following the manufacturer's instructions.

[3] = Plasma adiponectin level after intravenous injection of adiponectin; format: in vivo; conditions: 30 μg per 10 g body weight intravenously through inferior vena cava catheter, mice
Source text: as §1

B1: adiponectin: recombinant murine full-length adiponectin, internal ligand of adiponectin receptor 1 (protein, UniProt Q60994 1-247, looked up)
chain: MLLLQALLFLLILPSHAEDDVTTTEELAPALVPPPKGTCAGWMAGIPGHPGHNGTPGRDGRDGTPGEKGEKGDAGLLGPKGETGDVGMTGAEGPRGFPGTPGRKGEPGEAAYVYRSAFSVGLETRVTVPNVPIRFTKIFYNQQNHYDGSTGKFYCNIPGLYYFSYHITVYMKDVKVSLFKKDKAVLFTYDQYQEKNVDQASGSVLLHLEVGDQVWLQVYGDGDHNGLYADNVNDSTFTGFLLYHDTN
modifications: full-length
NAD+ and NADH contents (C2C12 myocytes): increased | NAD+/NADH ratio (C2C12 myocytes): increased | intracellular calcium ion concentration in soleus muscle (fura-2) (AdipoR1 [1]; control mice): increased | calcium responses of soleus muscle to adiponectin (AdipoR1 [1]; muscle-R1KO mice): almost completely disappeared | whole-cell inward current responses (AdipoR1 [2]): observed | phosphorylation of AMPK in liver (AMPK; both genotypes (control and muscle-R1KO)): increased | phosphorylation of AMPK in muscle (AMPK; control littermates): increased | PGC-1α acetylation (PGC-1α): decreased | plasma adiponectin levels [3]: approximately 30 μg/ml
